Laboratory results as given in patent US20210030836A1 (SHANGHAI INSTITUTE OF NUTRITION AND HEALTH CHINESE ACADEMY …, published 2021).

Molecular target: T1, ATM, phosphorylated (activated) (human, UniProt Q13315 2-3056, phosphorylated (activated state; site not given))
T1 construct: Endogenous protein co-immunoprecipitated from PSC27 cell lysates; also called p-ATM
Experiment: IP with p-TAK1 antibody from lysates of bleomycin-treated PSC27 cells, Western blot (FIG. 2)

T1 sequence (Q13315 2-3056 limits assumed): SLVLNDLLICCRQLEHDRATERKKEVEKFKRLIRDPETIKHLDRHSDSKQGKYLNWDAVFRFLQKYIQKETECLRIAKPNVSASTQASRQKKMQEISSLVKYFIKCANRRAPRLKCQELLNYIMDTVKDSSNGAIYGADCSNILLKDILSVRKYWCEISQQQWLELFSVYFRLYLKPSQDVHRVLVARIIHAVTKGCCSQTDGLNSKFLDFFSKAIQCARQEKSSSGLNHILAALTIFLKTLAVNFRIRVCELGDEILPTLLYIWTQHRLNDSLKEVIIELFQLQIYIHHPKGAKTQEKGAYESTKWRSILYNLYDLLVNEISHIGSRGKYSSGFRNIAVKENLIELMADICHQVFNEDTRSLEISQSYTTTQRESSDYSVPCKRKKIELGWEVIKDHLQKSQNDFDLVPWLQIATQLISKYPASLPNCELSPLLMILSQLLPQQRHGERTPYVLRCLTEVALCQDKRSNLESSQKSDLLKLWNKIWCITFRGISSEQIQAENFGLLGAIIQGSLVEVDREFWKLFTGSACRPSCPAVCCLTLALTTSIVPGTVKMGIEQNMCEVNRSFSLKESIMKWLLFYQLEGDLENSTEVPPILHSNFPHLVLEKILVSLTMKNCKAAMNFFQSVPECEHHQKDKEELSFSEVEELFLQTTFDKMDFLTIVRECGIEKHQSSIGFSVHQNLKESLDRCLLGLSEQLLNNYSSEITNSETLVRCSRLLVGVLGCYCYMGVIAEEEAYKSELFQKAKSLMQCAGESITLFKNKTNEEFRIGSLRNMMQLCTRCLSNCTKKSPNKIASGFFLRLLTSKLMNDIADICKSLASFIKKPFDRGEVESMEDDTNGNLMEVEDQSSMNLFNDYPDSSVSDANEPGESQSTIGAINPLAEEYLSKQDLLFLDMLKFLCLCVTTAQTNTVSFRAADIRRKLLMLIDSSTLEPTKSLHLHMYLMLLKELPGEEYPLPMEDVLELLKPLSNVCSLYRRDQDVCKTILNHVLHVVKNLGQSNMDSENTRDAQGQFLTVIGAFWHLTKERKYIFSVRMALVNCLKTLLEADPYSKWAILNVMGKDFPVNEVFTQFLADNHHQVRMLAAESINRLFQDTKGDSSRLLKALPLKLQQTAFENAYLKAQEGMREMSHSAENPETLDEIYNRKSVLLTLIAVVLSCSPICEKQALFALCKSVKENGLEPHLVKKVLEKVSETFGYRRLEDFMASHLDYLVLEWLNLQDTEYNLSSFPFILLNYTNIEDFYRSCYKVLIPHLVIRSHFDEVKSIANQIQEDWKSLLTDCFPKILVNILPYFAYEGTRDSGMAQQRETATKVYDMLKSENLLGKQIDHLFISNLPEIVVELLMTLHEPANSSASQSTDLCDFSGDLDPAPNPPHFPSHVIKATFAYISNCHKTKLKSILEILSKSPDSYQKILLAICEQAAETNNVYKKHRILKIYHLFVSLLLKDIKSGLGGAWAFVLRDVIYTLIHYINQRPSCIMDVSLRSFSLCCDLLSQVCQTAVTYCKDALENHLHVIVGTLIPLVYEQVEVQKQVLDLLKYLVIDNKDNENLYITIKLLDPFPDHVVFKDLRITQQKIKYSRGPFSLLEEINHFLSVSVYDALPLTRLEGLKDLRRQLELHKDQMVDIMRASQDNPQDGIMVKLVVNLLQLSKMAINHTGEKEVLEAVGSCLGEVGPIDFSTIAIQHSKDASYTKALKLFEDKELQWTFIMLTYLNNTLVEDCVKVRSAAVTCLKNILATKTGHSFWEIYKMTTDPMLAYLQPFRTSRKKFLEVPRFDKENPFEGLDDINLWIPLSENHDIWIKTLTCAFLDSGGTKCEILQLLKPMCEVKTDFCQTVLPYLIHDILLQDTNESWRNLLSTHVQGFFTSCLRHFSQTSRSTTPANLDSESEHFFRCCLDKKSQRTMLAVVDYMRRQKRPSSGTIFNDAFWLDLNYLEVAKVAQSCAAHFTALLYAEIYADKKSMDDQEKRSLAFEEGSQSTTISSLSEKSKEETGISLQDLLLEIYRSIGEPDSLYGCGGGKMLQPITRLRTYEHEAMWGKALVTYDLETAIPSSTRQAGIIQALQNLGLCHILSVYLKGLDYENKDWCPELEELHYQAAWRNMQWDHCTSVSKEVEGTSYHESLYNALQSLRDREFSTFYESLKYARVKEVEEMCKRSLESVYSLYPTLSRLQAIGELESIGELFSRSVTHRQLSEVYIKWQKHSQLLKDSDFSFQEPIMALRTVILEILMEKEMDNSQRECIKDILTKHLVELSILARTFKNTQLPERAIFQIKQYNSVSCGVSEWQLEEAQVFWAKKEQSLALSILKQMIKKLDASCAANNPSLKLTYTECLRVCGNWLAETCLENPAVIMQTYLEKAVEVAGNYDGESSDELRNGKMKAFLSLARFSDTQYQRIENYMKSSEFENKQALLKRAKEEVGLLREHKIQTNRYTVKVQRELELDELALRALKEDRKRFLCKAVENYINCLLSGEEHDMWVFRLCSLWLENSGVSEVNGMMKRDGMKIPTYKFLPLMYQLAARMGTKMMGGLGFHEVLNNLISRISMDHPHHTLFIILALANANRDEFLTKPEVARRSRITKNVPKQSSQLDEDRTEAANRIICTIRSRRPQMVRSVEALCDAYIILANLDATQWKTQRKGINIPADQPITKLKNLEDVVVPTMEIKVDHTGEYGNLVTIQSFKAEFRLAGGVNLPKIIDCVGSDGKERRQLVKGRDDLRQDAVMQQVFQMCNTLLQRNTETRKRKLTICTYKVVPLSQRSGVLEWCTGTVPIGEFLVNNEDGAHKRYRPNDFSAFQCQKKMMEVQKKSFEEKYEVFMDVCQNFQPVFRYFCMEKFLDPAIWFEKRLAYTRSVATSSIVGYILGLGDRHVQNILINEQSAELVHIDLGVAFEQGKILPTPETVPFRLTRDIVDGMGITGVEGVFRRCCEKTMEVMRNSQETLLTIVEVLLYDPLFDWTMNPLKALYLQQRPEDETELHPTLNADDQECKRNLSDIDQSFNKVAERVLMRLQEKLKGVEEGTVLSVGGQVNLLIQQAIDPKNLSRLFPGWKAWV

B1: Transforming growth factor kinase 1 (TAK1), phosphorylated (activated) (enzyme, human, UniProt O43318 1-606, looked up)
chain: MSTASAASSSSSSSAGEMIEAPSQVLNFEEIDYKEIEVEEVVGRGAFGVVCKAKWRAKDVAIKQIESESERKAFIVELRQLSRVNHPNIVKLYGACLNPVCLVMEYAEGGSLYNVLHGAEPLPYYTAAHAMSWCLQCSQGVAYLHSMQPKALIHRDLKPPNLLLVAGGTVLKICDFGTACDIQTHMTNNKGSAAWMAPEVFEGSNYSEKCDVFSWGIILWEVITRRKPFDEIGGPAFRIMWAVHNGTRPPLIKNLPKPIESLMTRCWSKDPSQRPSMEEIVKIMTHLMRYFPGADEPLQYPCQYSDEGQSNSATSTGSFMDIASTNTSNKSDTNMEQVPATNDTIKRLESKLLKNQAKQQSESGRLSLGASRGSSVESLPPTSEGKRMSADMSEIEARIAATTAYSKPKRGHRKTASFGNILDVPEIVISGNGQPRRRSIQDLTVTGTEPGQVSSRSSSPSVRMITTSGPTSEKPTRSHPWTPDDSTDTNGSDNSIPMAYLTLDHQLQPLAPCPNSKESMAVFEQHCKMAQEYMKVQTEIALLLQRKQELVAELDQDEKDQQNTSRLVQEHKKLLDENKSLSTYYQQCKKQLEVIRSQQQKRQGTS
modifications: phosphorylated (activated state; site not given)
notes: Endogenous protein immunoprecipitated with a p-TAK1 antibody from PSC27 cell lysates; also called p-TAK1
Question: Does B1 bind?
Answer: no binding
